From patent US20240417469A1 come the findings set out here.

The target in assay [1] is recombinant CD3D&E protein (human CD3-his tag) (human) (UniProt P04234). Kind of assay: SPR Biacore, Ab captured on Protein A. Background: SPR reads the build-up and loss of mass on a sensor chip optically.
The target in assay [2] is human CD3 on cells (human PBMC; Jurkat TCR/CD3 NFAT reporter cells) (human) (UniProt P07766). Kind of assay: FACS on human PBMC, PE anti-human IgG Fc secondary, geometric mean fluorescence.
human CD3 on cells (human PBMC; Jurkat TCR/CD3 NFAT reporter cells) (human), sequence (P07766 23-207, chain 1 of 3): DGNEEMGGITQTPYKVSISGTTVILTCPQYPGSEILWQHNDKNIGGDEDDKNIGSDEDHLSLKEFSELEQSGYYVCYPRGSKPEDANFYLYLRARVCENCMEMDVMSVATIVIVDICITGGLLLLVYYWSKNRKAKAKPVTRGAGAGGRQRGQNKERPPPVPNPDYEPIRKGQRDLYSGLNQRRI
human CD3 on cells (human PBMC; Jurkat TCR/CD3 NFAT reporter cells) (human), sequence (P04234 22-171, chain 2 of 3, further chain): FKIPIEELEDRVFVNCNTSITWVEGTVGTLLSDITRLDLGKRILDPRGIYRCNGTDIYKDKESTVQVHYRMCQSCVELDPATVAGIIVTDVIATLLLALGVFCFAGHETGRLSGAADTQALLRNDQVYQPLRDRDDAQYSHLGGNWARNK
human CD3 on cells (human PBMC; Jurkat TCR/CD3 NFAT reporter cells) (human), sequence (P09693 23-182, chain 3 of 3, further chain): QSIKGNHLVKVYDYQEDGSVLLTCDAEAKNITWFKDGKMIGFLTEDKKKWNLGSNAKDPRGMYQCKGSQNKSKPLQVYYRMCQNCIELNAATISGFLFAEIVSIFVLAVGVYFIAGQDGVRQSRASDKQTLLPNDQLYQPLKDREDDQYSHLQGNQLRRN

recombinant CD3D&E protein (human CD3-his tag) (human), sequence (P04234 22-105 limits assumed, chain 1 of 2): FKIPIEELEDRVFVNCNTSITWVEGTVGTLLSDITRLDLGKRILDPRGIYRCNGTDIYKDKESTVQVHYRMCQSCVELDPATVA
recombinant CD3D&E protein (human CD3-his tag) (human), sequence (P07766 23-126 limits assumed, chain 2 of 2, further chain): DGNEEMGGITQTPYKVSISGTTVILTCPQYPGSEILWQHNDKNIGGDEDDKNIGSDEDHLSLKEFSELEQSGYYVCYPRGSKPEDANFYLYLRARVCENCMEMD

The term Kd denotes the concentration at which binding is half-saturated. In general, koff refers to a measure of how fast the partners let go of each other. One may read the kon as a measure of how fast the partners come together. As a reminder, the EC50 (read off the curve) is the concentration needed to bring the measured effect to its halfway point. With OKT3 (antibody), in assay [1], the Kd came to 3.7 nM, the koff turned out to be 0.00272 s⁻¹ and the kon came out at 735000 M⁻¹ s⁻¹. In assay [2], this substance returned an EC50 (read off the curve) of 0.04 nM.
